Source: the DeepSol protein solubility set

Test: soluble on expression in E. coli; label from the status in PepcDB or PDB records

Row | Sequence | soluble on expression in E. coli
1 | MGSDKIHHHHHHGGCVRDVIDDVPGTDEDYAADKKDVVLIRMGTNDAEVKDITSRLFNNIPSSWEIGKKTIVDYDKMKDPETELNADIKNPKIYMTVILNIDDVISGKYPISLFRMLKFYKRDFYVIATQSTPEQKEEMLSLIGVYMEAGYYAINYDNVQHYRIFPSADPYAKDNMIGKGVASFNQKLLTRSADTLPEGNDPDPGYNAQMADKEALKRIEIYNRIYGYAQGDMNYSMQAVPYKMKPGAAPDVIIDNSWAIDAYNFQIYSKNNNCILSITNNAGNGFTANIKDYTTPKGANVYAYIWNLMREASSEITVHSDGGIFREISYQPQTVNHGASYTENSFWKVSVSVSPTKLEDKPWEAFKVSFGKESSTEVSYKTKSMDYSCKGQFGNGLYSKLWQFIPGEFYDRAEAFVYETSQGLRWIDAAQAMTPNYVTWGGWTLRQNYLNHINNSMKLHQQQCIYSLESDAQPGVVSVAITDAIDLQKTYVHYNCGIRYGHDSARTDLKMSKMVWIDFRQWDN | not soluble
2 | MGSDKIHHHHHHGNSKSRNDRTETVDKEVIKAPEFDADSAYQYIQVQADFGPRVPNTQAHKECGEYLAGQLEKFGAKVYNQYADLIAYDGTILKSRNIIGAYKPESKKRILLCAHWDSRPYADNDPDPKNHHTPILGVNDGASGVGVLLEIARQIQKEQPALGIDIVFFDSEDYGIPEFYDGKYKQDTWCLGSQYWARTPHVQNYNARYGILLDMVGGKDATFYYEGYSARTARSEMKKIWKKAHELGYGKYFVKEDGGETVDDHIYVNKLARIPCVDIINYDAGNPQSSFGSFWHTVNDTMENIDRNTLKAVGQTVMDVIYNEK | not soluble
3 | MGSDKIHHHHHHLKLTKNIVSIVTDVILNESEAIKNLVNHINDDFQHIIDAILSCKGRVVITGIGKSAIIGNKIVATLNSTGTPALFMHAADAIHGDLGMIQGGDVVICISKSGNTPEIKVLVPLIKNRGTILIGMVGNVDSYLAVQSDYVLNVTVEREACPNNLAPTTSTTATLVMGDALAVALLECRNFSSEDFAQLHPGGALGKQLYLRVNDVYTANEKPMVAPDATVKDVILEISSKRLGAAAVVDSAGILQGIITDGDLRRMLNAHDSFKQLCAADIMTKAPKTIDADEFAASAMLLMQSKNITQLIVMKNENFAGFIHIHDLLKEGIV | not soluble
4 | MGSDKIHHHHHHLLDYAGAIEEFSHALQLTPYFAEAYLQRGLAYYDSGAILKAVSDYTEALKLNPESVEAYYCRGLARVALKNLPGALEDVERAIRLNLNYAAAYNLRGMVRRKQGYVQDAIANFKKAAQLYLEQQDKENCRLCLERIKQLQPQELPVLQQSRSPNAPILSTNDYFTQLLEKAEKGDTQEALADLNWVLKADSQDAQAYCCRGVVRCKMGDYREAIADFNQALRLNFQDAIVYRNRGKARSILGDHQGAIADLNQALQMQPQDALVYIARGNAYRSTGNYLGAIQDYTQALQINPDDAQAYYNRGIAYTCLEEMQNAVEDYQRAASIFCEQEDWGNYQQVLSSLEKIQKFSPQSKKQKYNLLHQRLLQMVGGYWEIAERLIQQKQDYHPGMSDEWYLQKVIDDLERDRGR | not soluble
5 | MGSDKIHHHHHHLNTDPSTAVPSDDAIKNIDDAQVALNGIYRLASAHSYYGDNYLYYADCRGEDVQARINKGAGRRVSPYYFFDVTADDNFNITLVWNQPYKVIHQANSLIEKLDAGNAGNARPEEVARIKSEALAMRGLALFDLTRLFGMPYTLDNGASLGVPIEIQTTLEDHAPERNTVAQCYEQVLKDLNDALGGLTKEKHDAYMNYWSVKALLSRVYLYMNDNENALKCAEEVINDNGGIYRLFTHDEYPSVWGKDFNSESLFEFYFTMSEPSGGSGGEGAPMVYADNVKDWNNLILTKAYLDLLNEDPEDVRHVFPHLPENAVADTLPVAAKGQPKYLIKYPGKSGSVTDAVSTVNPQDNDLCILRLSEVYLNAAEAAFKIGNTEKALTYLNAIVTRANPAKSVTSADLSLERILKERRKELVGEGHAFFDYMRNGKSVDRSGGWHLTMPEDARVIAPSDPRVALPIPQTEIDANPNIVQNPR | not soluble
6 | MGSDKIHHHHHHLPAHLTPIQMEPEKALLRVHCQSDIDQLLSESVVFTLLSERNLGPKMLGVFPGGRFEQFIPSRALQCLEISKPGLSKLIAPIVARVHTLDAPIPKEPQTLQTARQWLERFKKTPAGERPIEMYLTQAKVPKSDYPSTITVAQLERELNFVEFFLQHSHSPVVFSHNDLQEGNFLLIDGYKLADDGTVLTPDGKPTNDDPLSLIDFEYCSYNYRGFDLGNHFCEYGYDYNEAEAPYYKIHQHYFEVEKERKVFCEAYLDEVYKMRACGDNPHFPSDLVTGDREKDLNKIIEESILFMPVSNIFWVCWSLINAEESSIAFDYGAYGRDRLALYFHQKKNLEKYLSNL | not soluble
7 | MGSDKIHHHHHHLRASSSIRVGAERAHLAIGAASKRMADLEASIGVQLFERHARGVALTAAGEALERHTQRILNDMDRMTAEMSDYAAGVVGVVRLWANTSSVTQFLPTDIAAFSVVHPDIRIELEEQDSEQVALAVVDGAADFGIMADRMPTLGLQAMLYRKDHLFLVVPDGHPLTQRESVSFVDALEFDFVSLARNTSLAKRLQAATAFSGGQIKLRIQVRSFDAMCLMVAAGPGIAILPDAAVGPHLRSMDLCRIPLSENWTRRELFICARDLNALPRPASLLVNHLIGATPDAVAVR | not soluble
8 | MGSDKIHHHHHHMAAIAGLYVYPIKGLDSEHRSTATLRTHGQLHHDRTFTLVDSDTGSIVTAKRRPALHAFRTDYEPETGTLTVTDPDGQRASFSLGDDEGLSAAGDWFDSRLAVSVSMRSDPTGFVDRSDMGPAVVSTATLEAIADWFDSMTVAGARRRLRANIEIEGVPAFWEDRFVGDGAPAFEVGGVRFEGVTPCNRCVVPSRDPDTGEQLPEFRKTFCANRERTFPEWADGDAFDHEYAAMILARAPDISGGETLAVGDGVAVLDEAA | not soluble
9 | MGSDKIHHHHHHMADETISLDYYAPRFRVEIDGETIPQDGIVSVEVDETLDAPAMVSLAFNETLDPRSQTFAWLDNPKLVPGAEVKVFLGYTGRAVPAPKPLFEGRLHTLTPAFQNSGVPSLMVQGYDHSHGLQKVKSHFSRTNARASDAASEIARLNGLDASGVEATATVHPSIRQGEDEVDLEFLRRLARDLGFEVFVRGKALMFRTPADEETELLTFQWGRNLVSFTPRLSTSAQVSEVRVRGWNPATKERIEGKATVADLKGLAGGVSGAEQAGSGGEPVVRSIEDRPVFSREEADALARAELNRLNDGFITGTGETIGMPELRPGITVAIQGIGTRFSGRYYVKGARHSLGDSGYRTTFEVRRNALGSL | not soluble
10 | MGSDKIHHHHHHMADFSNQIITIKKGLDLPIAGEPRQIIESGNKPSQVAILGEEYVGLKPTMLVEVGDKVKKGQPLFEDKKTKGVLFTAPASGEIVAINRGDRRVLQSVVIGCDGLDVNEQIRFDILPDVISLSRQVVQDQLVSSGLWTALRTRPFSRVPALDSQPAGIFVTAIDTNPLAADPRLIIAEQLEAFKTGLQVLTRLTEGKVYLCQDKGDAIACDVSPNLEIRRFTGVHPAGLAGTHIHFTLPVSLERQVWHIGYQDVIAYGKLFQTGELYTDRIIALGGPSVLNPRLLRTQLGAELSVLVADEIKPGNNRVVSGSVLSGHTAAGVHDFLGRFHNQVSVLAEDAQHQVLPWVRGGSDKFSITRAVTSRLFGASKRFEFTTHQGGSQRAMMAFGQLDRVMPLDILPTLLVRDLVVRDTDEAQALGALELDEEDLALCTFVCPGKYDFGKELRACLDVIEREG | not soluble
11 | MGSDKIHHHHHHMADTAPQLKRKREQEAEEAETPSTEEKEAGVGNGTSAPVRLPFSGFRVQKVLRESARDKIIFLHGKVNEDSGDTHGEDAVVILEKTPFQVEHVAQLLTGSPELKLQFSNDIYSTYNLFPPRHLSDIKTTVVYPATEKHLQKYMRQDLRLIRETGDDYRTITLPYLESQSLSIQWVYNILDKKAEADRIVFENPDPSDGFVLIPDLKWNQQQLDDLYLIAICHRRGIRSLRDLTPEHLPLLRNILREGQEAILKRYQVTGDRLRVYLHYLPSYYHLHVHFTALGFEAPGSGVERAHLLAQVIENLECDPKHYQQRTLTFALRTDDPLLQLLQKAQQERN | soluble
12 | MGSDKIHHHHHHMAFCNNANLLNVFVRHIANNQLRSLAEVATVAHQLKLLKDDFFASDQQAVAVADRYPQDVFAEHTHDFCELVIVWRGNGLHVLNDRPYRITRGDLFYIHADDKHSYASVNDLVLQNIIYCPERLKLNLDWQGAIPGFNASAGQPHWRLGSMGMAQARQVIGQLEHESSQHVPFANEMAELLFGQLVMLLNRHRYTSDSLPPTSSETLLDKLITRLAASLKSPFALDKFCDEASCSERVLRQQFRQQTGMTINQYLRQVRVCHAQYLLQHSRLLISDISTECGFEDSNYFSVVFTRETGMTPSQWRHLNSQKD | not soluble
13 | MGSDKIHHHHHHMAFTNNVMIVRHKLLAKLVNLWKENKLTNEIDRLPIELSPRRSRPLGRCCIHKERAVYKYKLFPLLGFDMTDETDELTSLSEYARQALERKNKQKENILCVIDEACSSCVQVNYEVTNLCRGCVARSCYMNCPKDAIRFRKNGQAKIDHDACISCGKCHQSCPYHAIVFIPVPCEEACPVKAISKDENGIEHIDESKCIYCGKCLNACPFGAIFEISQAFDVLEGIRSGEKMIAIPAPSILGQFNTSIEAVYGALRQMGFADVVEVAQGAMDTVSHEAAELKEKLEEGQPFMTTSCCPSYIELVNKHIPGMKPYVSSTGSPMYYAARIAKERHPDAKIVFIGPCVAKRKEARRDECVDYILTFEEMASIFEGLDIQLEQTQPFSVLYTSVREAHGFAQAGGVMGAIKAYLGEEAKKFSAIQVSDLNKKNIGLLRAAAKTGKAQGQFIEVMACEGGCISGPSAHNDAIGGRRQLNQELIKRRESYEETHR | not soluble
14 | MGSDKIHHHHHHMAGATLLTSSCNDWLDVLPKNEQVSPEYWKTKEQVEEVLAQGYQNMRLTVPTLIYWGELRGASIYAYSGKSKQELQNFQLNSSSGECKWGGFYSILNVANSIIKYAPEVKRQDETYHEAVMNSNMAEAYFMRAWTYFTLVRNFKEVPLILEPYMTDEYAVDIPKSSEETIIAQIKLDIENALSTGAAKEMYDDEDWTGMSKGRVTVWALYALMADVCLWSEDYDGCVRYADMLINSTSAFRPAFVEDPEQWYNIFFPGNSNGSIFELNFDQSRNQSPDDDATASTYPSPSNVYPWTQSTVASLQFSNAMCKRLFDEQTDQWVTSNTVRGYGNTFVLSSGTVIGNSNTEGYLPFKFRIGGKDGLSTTRSYKDANWILYRMADVLLMKAEALIWKGGEANFAQALELINKIRTRANVTTLSVQTNAVSQENMLGYLLQERDLEFAAEGKRWYDLLRFGRSQNFKYKDQFINMIIENNSTVSASWIRSVLKNTDAWYLPISQGEIDSNPNLIQNPYYDVTAN | not soluble
15 | MGSDKIHHHHHHMAGIRAKQKEKTRQALINAAMNQLSAENGFSSLSLREVAREAGIAPTSFYRHFRDMDELGLTLVDECGLALRQLLRQARQRIESGGSIIRVSIETFMQFVANNTATFRLLLQERSGRSRSFRLAVVREIDHFKAELEDYLVNEQSFSRELAELQSDTIAKIVFSAGADCFDVDEEEREIITEKTILQVRLVARGAEATRRLLKRES | not soluble
16 | MGSDKIHHHHHHMAIITRIEVQKRNNERYNIFIHQNGQDVYAFSVDEQVLIKQGLRKGLDIDAEQMKQILYEDEVQKTFNLALHYLSYRMRSVHEVRTYLKKKDREEPIIEHVLHRLTEQRLLDDHAFAEAFIQTKRATTSKGPLKLKQELAEKGVSEKTIEGALTTFSYEEQVEQVKAWLEKQKGRTFKGSSLAWKQKLSRQLLAKGYTSPVIEEAFADVPIKQEEEEEWEALKAFGEKAMRKYAGKKTGWELQQKVKQALYRKGFSLEMIERYLND | not soluble
